This is an account of results in patent publication US20210206865A1 (Regeneron, published 2021).

Assay [1] has as its target T1, human BCMA-MMH (extracellular domain of human BCMA with C-terminal myc-myc-hexahistidine tag) (human).
T1 construct: Monomeric antigen; also called hBCMA.mmh; hBCMA.mmH
T1 chain: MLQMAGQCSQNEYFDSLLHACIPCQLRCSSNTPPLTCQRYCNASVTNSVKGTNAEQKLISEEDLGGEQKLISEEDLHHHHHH
As to the kind of experiment: SPR Biacore, 25 C, mAb captured via anti-hFc. How it is done: (§1) The CM5 Biacore sensor surface was derivatized by amine coupling with a monoclonal mouse anti-human Fc antibody (GE, #BR-1008-39) to capture purified anti-BCMA mAbs and anti-BCMA×anti-CD3 bispecific mAbs. All Biacore binding studies were performed in a buffer composed of 0.01M HEPES pH 7.4, 0.15M NaCl, 3 mM EDTA, 0.05% v/v Surfactant P20 (HBS-ET running buffer). […] Antigen samples were then injected over the anti-BCMA and anti-BCMA×anti-CD3 bispecific mAbs captured surfaces at a flow rate of 30 μL/minute. Antibody-reagent association was monitored for 5 minutes while dissociation in HBS-ET running buffer was monitored for 10 minutes. All of the binding kinetics experiments were performed at 25° C. Kinetic association (kₐ) and dissociation (kd) rate constants were determined by fitting the real-time sensorgrams to a 1:1 binding model using Scrubber 2.0c curve fitting software. Binding dissociation equilibrium constants (KD) and dissociative half-lives (t1/2) were calculated from the kinetic rate constants as: […]

Assay [2] deals with T2, human BCMA-MFC (extracellular domain of human BCMA with C-terminal mFc tag) (human).
T2 construct: also called hBCMA.mFc
T2 chain: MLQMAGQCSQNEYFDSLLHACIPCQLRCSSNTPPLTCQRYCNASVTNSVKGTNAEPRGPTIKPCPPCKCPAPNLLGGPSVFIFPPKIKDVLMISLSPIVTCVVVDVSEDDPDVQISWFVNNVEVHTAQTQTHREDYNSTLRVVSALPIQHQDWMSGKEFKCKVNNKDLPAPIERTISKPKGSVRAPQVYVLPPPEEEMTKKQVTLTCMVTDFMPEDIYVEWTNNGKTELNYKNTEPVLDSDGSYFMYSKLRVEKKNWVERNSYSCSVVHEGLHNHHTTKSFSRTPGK
As to the kind of experiment: SPR Biacore, 25 C, mAb captured via anti-hFc. The protocol: as §1
On the technique in general: SPR reads the build-up and loss of mass on a sensor chip optically.

In assay [3] the target is T3, monkey BCMA-MMH (monkey BCMA with C-terminal myc-myc-hexahistidine tag) (monkey).
T3 construct: Monomeric antigen; also called mfBCMA.mmh
As to the kind of experiment: SPR Biacore, 25 C, mAb captured via anti-hFc. How it is done: as §1

For assay [4], the target named is T4, cynomolgus CD3 on cells (mfCD3 engineered Jurkat cells, primary cynomolgus CD8+ T cells) (cynomolgus, UniProt Q95LI5 22-198; Q95LI8 22-171).
T4 construct: whole, on cells; The engineered Jurkat line expresses cynomolgus CD3 epsilon and delta in place of the human versions (other chains remain human); primary cynomolgus T cells carry the whole cynomolgus complex; also called Jurkat-mfCD3; Mf (Cyno) CD3
Briefly: flow cytometry, mfCD3 engineered Jurkat cells, median EC50, n=2. The protocol: (§2) Flow cytometric analysis was utilized to determine binding of BCMA×CD3 bispecific antibodies to human and cynomolgus CD3 (Jurkat cells, mfCD3 engineered Jurkat cells, primary human CD8+ and cynomolgus CD8+ T cells). Briefly, 1e05 cells/well were incubated in the presence of FACS wash with block (PBS+1% filtered FBS+5% mouse serum) with a serial dilution of BCMA×CD3 and control antibodies for 30 minutes on ice. After incubation, the cells were washed twice with cold FACS wash (PBS+1% filtered FBS) and bound antibody was detected by incubating with Alexa647-conjugated anti-human secondary antibody on ice for an additional 30 minutes. Wells containing no antibody or secondary only were used as a control. For the detection of monkey and human T cells, a cocktail of human and cynomolgus cross-reactive antibodies to CD4, CD8 and CD16 was added to the anti-human secondary. After incubation, cells were washed, re-suspended in 200 μL cold PBS containing 1% filtered FBS and analyzed by flow cytometry on a BD FACS Canto II. Cells were gated by FSC-H by FSC-A to select singlet events, followed by side and forward scatters to select for live events. For monkey T cells, additional gating on CD8+/CD16-cells was performed.
(§3) EC50 values for FACS binding were calculated using 4-parameter non-linear regression analysis in Prism software.

Assay [5] deals with T4, cynomolgus CD3 on cells (mfCD3 …). As to the kind of experiment: flow cytometry, primary cynomolgus CD8+ T cells, median EC50, n=1. How it is done:
as §2, §3
In general terms: Flow cytometry measures light scatter and fluorescence of single cells or particles in a stream.

The target in assay [6] is T5, human BCMA on the surface of cell lines (NCI-H929, MM.1S, OPM-2, RPMI-8226, Daudi, Raji, MOLP-8, U266) (human, UniProt Q02223 1-184).
T5 construct: Endogenous BCMA of human myeloma and lymphoma cell lines; also called TNFRSF17; CD269
T5 sequence: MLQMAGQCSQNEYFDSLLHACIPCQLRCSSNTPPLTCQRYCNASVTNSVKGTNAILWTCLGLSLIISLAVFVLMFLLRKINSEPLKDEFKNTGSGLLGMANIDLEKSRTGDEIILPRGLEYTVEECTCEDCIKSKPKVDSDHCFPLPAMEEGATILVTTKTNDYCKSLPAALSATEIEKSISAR
As to the kind of experiment: flow cytometry, Alexa647 conjugate on MM.1S cells. The protocol: (§4) Cells were then washed and fixed for 25 mins at 4° C. using a 50% solution of BD Cytofix (BD, Cat #554655) diluted in PBS. […] After gating for live cells and single cells, the mean fluorescent intensity (MFI) was determined, and MFI values were plotted in Graphpad Prism using a four-parameter logistic equation over a 10-point response curve to calculate EC₅₀s. The zero condition for each dose-response curve is also included in the analysis as a continuation of the two-fold serial dilution and is represented as the lowest dose.

Assay [7] has as its target T5, human BCMA on the surface of cell lines …. Briefly: flow cytometry, Alexa647 conjugate on OPM-2 cells. The protocol: as §4
Assay [8] shares this target. Briefly: flow cytometry, Alexa647 conjugate on RPMI-8226 cells. How it is done: as §4

Residue numbers refer to the chain shown, from its start.

T4 sequence (Q95LI5 22-198, stated change not applied, chain 1 of 2): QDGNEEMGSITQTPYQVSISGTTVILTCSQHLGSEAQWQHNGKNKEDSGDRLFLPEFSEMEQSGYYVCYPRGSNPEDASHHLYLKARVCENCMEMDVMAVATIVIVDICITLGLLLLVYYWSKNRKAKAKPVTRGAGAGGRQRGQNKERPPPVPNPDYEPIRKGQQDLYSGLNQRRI
T4 sequence (Q95LI8 22-171, stated change not applied, chain 2 of 2): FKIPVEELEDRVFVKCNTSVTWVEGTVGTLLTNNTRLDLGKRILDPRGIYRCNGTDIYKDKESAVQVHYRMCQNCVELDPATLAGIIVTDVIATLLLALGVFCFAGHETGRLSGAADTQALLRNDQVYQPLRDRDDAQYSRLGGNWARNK

B1: bsAb25441D bispecific antibody (REGN5458), anti-BCMA x anti-CD3 (bispecific antibody, human IgG4 S228P, kappa)
heavy 1: EVQLVESGGGLVQPGGSLRLSCAASGFTFSNFWMTWVRQAPGKGLEWVANMNQDGSEKYYVDSVKGRFTISRDNAKSSLYLQMNSLRAEDTAVYYCARDREYCISTSCYDDFDYWGQGTLVTVSSASTKGPSVFPLAPCSRSTSESTAALGCLVKDYFPEPVTVSWNSGALTSGVHTFPAVLQSSGLYSLSSVVTVPSSSLGTKTYTCNVDHKPSNTKVDKRVESKYGPPCPPCPAPPVAGPSVFLFPPKPKDTLMISRTPEVTCVVVDVSQEDPEVQFNWYVDGVEVHNAKTKPREEQFNSTYRVVSVLTVLHQDWLNGKEYKCKVSNKGLPSSIEKTISKAKGQPREPQVYTLPPSQEEMTKNQVSLTCLVKGFYPSDIAVEWESNGQPENNYKTTPPVLDSDGSFFLYSRLTVDKSRWQEGNVFSCSVMHEALHNHYTQKSLSLSLGK
heavy 2: EVQLVESGGGLVQPGRSLRLSCAASGFTFDDYSMHWVRQAPGKGLEWVSGISWNSGSKGYADSVKGRFTISRDNAKNSLYLQMNSLRAEDTALYYCAKYGSGYGKFYHYGLDVWGQGTTVTVSSASTKGPSVFPLAPCSRSTSESTAALGCLVKDYFPEPVTVSWNSGALTSGVHTFPAVLQSSGLYSLSSVVTVPSSSLGTKTYTCNVDHKPSNTKVDKRVESKYGPPCPPCPAPPVAGPSVFLFPPKPKDTLMISRTPEVTCVVVDVSQEDPEVQFNWYVDGVEVHNAKTKPREEQFNSTYRVVSVLTVLHQDWLNGKEYKCKVSNKGLPSSIEKTISKAKGQPREPQVYTLPPSQEEMTKNQVSLTCLVKGFYPSDIAVEWESNGQPENNYKTTPPVLDSDGSFFLYSRLTVDKSRWQEGNVFSCSVMHEALHNRFTQKSLSLSPGK
light: not shown
notes: Anti-BCMA arm from mAb21581, anti-CD3 arm and common light chain from mAb7221G; also called bsAb25441D9; mAb25441D
B1: in assay [1], the “90 nM hBCMA.mmh Bind (RU)” value turned out to be 19.9 RU; the Kd – broadly, the free concentration of one partner at which half of the binding sites on the other are occupied at equilibrium, for simple one-to-one binding – is 1.06 nM; the t1/2 amounted to 13.2 min. Besides, in assay [2], the “30 nM hBCMA.mFc Bind (RU)” value turned out to be 107 RU, the Kd is not above 0.0223 nM and the t1/2 is not above 1160 min. In assay [3], the “90 nM mfBCMA.mmh Bind (RU)” value worked out at 14.8 RU, the Kd worked out at 49.9 nM and the t1/2 is 1.3 min. The EC50 – broadly, the concentration giving half of the maximal effect – in assay [4] is 15.1 nM. In assay [5], it took 46.6 nM to reach a half-maximal effect (EC50).

B2: bsAb25442D bispecific antibody (REGN5459), anti-BCMA x anti-CD3 (bispecific antibody, human IgG4 S228P, kappa)
heavy 1: B1 heavy 1
heavy 2: B1 heavy 2 with K58I, H108Y, L111M
light: not shown
notes: Anti-BCMA arm from mAb21581, anti-CD3 arm and common light chain from mAb7221G20; also called mAb25442D; mAb25442D-A647
For the molecule B2, in assay [1], the “90 nM hBCMA.mmh Bind (RU)” value is 17 RU, the equilibrium dissociation constant (Kd) came out at 1.38 nM, the koff (usually the first-order rate constant of dissociation) came to 0.00101 s⁻¹ and the kon (commonly a measure of how fast the partners come together) was 730000 M⁻¹ s⁻¹. Besides, the t1/2 in assay [1] amounted to 11.5 min. In assay [2], the “30 nM hBCMA.mFc Bind (RU)” value stood at 96.8 RU, the Kd is not above 0.0223 nM, the koff was not above 1e-05 s⁻¹ and the kon is 449000 M⁻¹ s⁻¹. This molecule also came in with a t1/2 in assay [2] not above 1160 min. In addition, in assay [3], the “90 nM mfBCMA.mmh Bind (RU)” value amounted to 12.7 RU, the Kd is 38.8 nM, the koff worked out at 0.00864 s⁻¹ and the kon is 223000 M⁻¹ s⁻¹. The molecule further showed a t1/2 in assay [3] of 1.3 min. In assay [6], a half-maximal response (EC50) required 83 nM and the “S/N (ratio of mAb25442D-A647 MFI to Isotype-A647 MFI)” value was determined as 43. In addition, in assay [7], a half-maximal response (EC50) required 57 nM and the “S/N (ratio of mAb25442D-A647 MFI to Isotype-A647 MFI)” value was 19. In assay [8], the EC50 was 27 nM and the “S/N (ratio of mAb25442D-A647 MFI to Isotype-A647 MFI)” value is 9.
